T1: human TIGIT expressed on cells (human, UniProt Q495A1 22-244)
T1 construct: whole, on cells; cDNA encoding human TIGIT in pCHO1.0 for CHO cells; also called CHO-huTIGIT cells
T1 sequence (looked up): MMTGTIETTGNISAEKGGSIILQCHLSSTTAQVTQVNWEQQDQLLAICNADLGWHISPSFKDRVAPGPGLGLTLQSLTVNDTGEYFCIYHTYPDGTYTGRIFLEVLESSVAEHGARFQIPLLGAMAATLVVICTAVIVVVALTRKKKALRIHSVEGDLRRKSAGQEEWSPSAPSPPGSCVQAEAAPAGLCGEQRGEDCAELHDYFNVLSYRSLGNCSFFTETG

T2: mouse TIGIT overexpressed on CHO cells (mouse, UniProt P86176 29-249)
T2 construct: whole, on cells; also called CHO-muTIGIT cells
T2 sequence (looked up): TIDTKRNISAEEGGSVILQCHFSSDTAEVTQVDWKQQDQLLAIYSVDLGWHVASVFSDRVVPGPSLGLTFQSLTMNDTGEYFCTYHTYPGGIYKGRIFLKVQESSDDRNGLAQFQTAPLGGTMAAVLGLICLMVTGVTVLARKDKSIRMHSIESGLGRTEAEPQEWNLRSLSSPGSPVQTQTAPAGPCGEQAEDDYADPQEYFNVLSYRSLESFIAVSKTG


What was measured:
[1] = target: T1, human TIGIT expressed on cells; experiment: flow cytometry on activated human primary T cells (TIGIT), readout positive cell (%); unit from the concentration axis
From the text: The binding activity of the anti-TIGIT antibody of the present invention to TIGIT on the surface of activated T cells was detected based on the flow cytometry detection method.
Specifically, human PBMC were sorted according to the experimental protocol provided by […] Company (stemcell, Cat. No.: #17951C) to obtain human total T cells. […] The activated T cells were adjusted to an appropriate cell density and added to a 96-well flow cytometry plate. After centrifugation, the gradiently diluted sample to be tested was added, and incubated at 4° C. for 30 minutes. Washing was carried out twice with PBS, and a fluorescent secondary antibody diluted to an appropriate concentration was added, incubated at 4° C. for 30 minutes, and washed twice with PBS. […]

[2] = target: T2, mouse TIGIT overexpressed on CHO cells; experiment: flow cytometry on CHO cells overexpressing mouse TIGIT, median fluorescence intensity PE-A; unit from the concentration axis
From the text: (§1) Specifically, CHO cells overexpressing human TIGIT (CHO-huTIGIT cells), CHO cells overexpressing cynomolgus TIGIT (CHO-cynoTIGIT cells) and CHO cells overexpressing mouse TIGIT (CHO-muTIGIT cells) were generated by transfection of the pCHO1.0 vector (purchased from Invitrogen) with cDNA encoding human TIGIT, cynomolgus TIGIT and mouse TIGIT cloned into the multiple cloning site (MCS), respectively, followed by pressure screening. The overexpressing cells were expanded and adjusted to an appropriate cell density, and added to a 96-well flow cytometry plate. After centrifugation, the cells were added with a gradiently diluted sample to be tested, and incubated at 4° C. for 30 minutes. The cells were washed twice with PBS, and added with a fluorescent secondary antibody correspondingly diluted to an appropriate concentration, then incubated at 4° C. for 30 minutes, and washed twice with PBS. Cells were resuspended with PBS, and detected on a CytoFlex flow cytometer, and the corresponding MFI was calculated. Graphpad software was used for graphical analysis to obtain EC₅₀ values.

[3] = target: T2, mouse TIGIT overexpressed on CHO cells; experiment: flow cytometry, CHO-muTIGIT cells
From the text: as §1

[4] = target: T2, mouse TIGIT overexpressed on CHO cells; experiment: flow cytometry blocking assay: binding of mouse CD155 protein with mouse IgG2a Fc tag to CHO cells overexpressing mouse TIGIT, median fluorescence intensity APC-A; unit from the concentration axis
Description: The CHO-muTIGIT cells were expanded and adjusted to a cell density of 2×10⁶ cells/mL, added to a 96-well flow plate at 100 μL/well, and centrifuged for later use. The purified antibodies were diluted 3-fold with PBS starting at 400 nM for a total of 12 concentration gradients. […] APC-conjugated goat anti-mouse IgG antibody diluted 100-fold with PBS was added at 100 μL/well, incubated at 4° C. for 30 minutes, and washed twice with PBS. Cells were resuspended with PBS at 100 μL/well, and detected on a CytoFlex flow cytometer, and the corresponding MFI was calculated. Graphpad software was used for graphing analysis to obtain IC₅₀ values.

[5] = target: T1, human TIGIT expressed on cells; experiment: flow cytometry on CHO cells overexpressing human TIGIT, median fluorescence intensity PE-A; unit from the concentration axis
From the text: as §1

| EC50 [1] | EC50 [2] | EC50 [3] | IC50 [4] | EC50 [5] | Binder |
| --- | --- | --- | --- | --- | --- |
| 0.106 nM | 2.96 nM | 2.96 nM | 1.5 nM | 0.962 nM | anti-TIGIT monoclonal antibody 55796-G1 (antibody, V domains shown, Wild-type human IgG1 heavy chain constant region, human kappa light chain constant region) VH: QLQLQESGPGLVKPAETLSLTCTVSGGSISSYDHYWTWIRQPPGKGLEWIGTVYYSGSTFHNPSLKSRVTIPVDTSKNQFSLKLSSVTAADTAVYYCARVGPDVSHPPFDYWGQGTLVTVSS VL: not shown |
| 0.0878 nM | 3.36 nM | 3.36 nM | 1.56 nM | 0.845 nM | anti-TIGIT monoclonal antibody 55796-G1LALA (antibody, V domains shown, Human IgG1 heavy chain constant region modified by L234A, L235A; human kappa light chain constant region; HEK293) VH: QLQLQESGPGLVKPAETLSLTCTVSGGSISSYDHYWTWIRQPPGKGLEWIGTVYYSGSTFHNPSLKSRVTIPVDTSKNQFSLKLSSVTAADTAVYYCARVGPDVSHPPFDYWGQGTLVTVSS VL: not shown |
